From article PMC4945878

Assays:
Claspin Cdel2 = Claspin Cdel2 (human, UniProt Q9HAW4 1-1339, del1101-1209); assay: EMSA; higher binding than full-length; 10 mM Tris-HCl pH 7.5, 40 ug/ml BSA, 1 mM DTT, EDTA (50 mM as printed for EMSA; 0.5 mM for filter binding), 20 mM K-glutamate, 8% glycerol, 30 C, 1 h
Claspin Cdel1 = Claspin Cdel1 (human, UniProt Q9HAW4 1-985+=GS+1210-1339, internal_change); assay: EMSA; higher affinity than full-length; 10 mM Tris-HCl pH 7.5, 40 ug/ml BSA, 1 mM DTT, EDTA (50 mM as printed for EMSA; 0.5 mM for filter binding), 20 mM K-glutamate, 8% glycerol, 30 C, 1 h
[1] = target: Claspin #25 (N-terminal polypeptide) (human, UniProt Q9HAW4 1-896); assay: EMSA; plus #13 DE/A (aa897-1209) 1.5 or 3 pmol, no significant inhibition; 10 mM Tris-HCl pH 7.5, 40 ug/ml BSA, 1 mM DTT, EDTA (50 mM as printed for EMSA; 0.5 mM for filter binding), 20 mM K-glutamate, 8% glycerol, 30 C, 1 h
[2] = target: Claspin wild-type full-length (human, UniProt Q9HAW4 1-1339); assay: EMSA; 0.5 and 1.0 pmol protein, 20 fmol DNA; much lower affinity than C-terminal deletions; 10 mM Tris-HCl pH 7.5, 40 ug/ml BSA, 1 mM DTT, EDTA (50 mM as printed for EMSA; 0.5 mM for filter binding), 20 mM K-glutamate, 8% glycerol, 30 C, 1 h

Measured: binding result

Sequence of Claspin #25 (N-terminal polypeptide) (Q9HAW4 1-896): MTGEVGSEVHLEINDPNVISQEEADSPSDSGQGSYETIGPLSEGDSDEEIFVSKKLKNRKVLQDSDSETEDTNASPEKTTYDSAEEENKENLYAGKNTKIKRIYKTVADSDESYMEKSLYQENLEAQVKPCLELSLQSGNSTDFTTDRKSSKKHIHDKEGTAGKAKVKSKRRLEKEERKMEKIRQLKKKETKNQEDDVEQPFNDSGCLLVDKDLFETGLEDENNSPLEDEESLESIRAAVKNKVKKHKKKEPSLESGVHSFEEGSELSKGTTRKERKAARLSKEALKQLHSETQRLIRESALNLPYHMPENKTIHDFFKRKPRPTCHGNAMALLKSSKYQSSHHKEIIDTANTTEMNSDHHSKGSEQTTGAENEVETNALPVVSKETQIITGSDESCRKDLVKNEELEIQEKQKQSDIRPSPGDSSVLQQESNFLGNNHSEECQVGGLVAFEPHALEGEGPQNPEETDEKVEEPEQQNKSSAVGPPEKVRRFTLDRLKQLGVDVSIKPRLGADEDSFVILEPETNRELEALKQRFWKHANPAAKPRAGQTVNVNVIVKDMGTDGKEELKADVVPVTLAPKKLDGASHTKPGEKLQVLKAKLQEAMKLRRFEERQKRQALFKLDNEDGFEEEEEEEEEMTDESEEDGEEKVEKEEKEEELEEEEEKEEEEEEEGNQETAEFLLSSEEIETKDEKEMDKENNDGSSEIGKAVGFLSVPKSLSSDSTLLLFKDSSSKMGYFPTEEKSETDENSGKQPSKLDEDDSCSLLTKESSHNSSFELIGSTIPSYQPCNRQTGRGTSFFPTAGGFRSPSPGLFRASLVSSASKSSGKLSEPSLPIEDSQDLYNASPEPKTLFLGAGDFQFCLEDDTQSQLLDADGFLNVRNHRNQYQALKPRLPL
Sequence of Claspin Cdel2 (Q9HAW4 other isoform, or with tags, fused parts or gaps del1101-1209): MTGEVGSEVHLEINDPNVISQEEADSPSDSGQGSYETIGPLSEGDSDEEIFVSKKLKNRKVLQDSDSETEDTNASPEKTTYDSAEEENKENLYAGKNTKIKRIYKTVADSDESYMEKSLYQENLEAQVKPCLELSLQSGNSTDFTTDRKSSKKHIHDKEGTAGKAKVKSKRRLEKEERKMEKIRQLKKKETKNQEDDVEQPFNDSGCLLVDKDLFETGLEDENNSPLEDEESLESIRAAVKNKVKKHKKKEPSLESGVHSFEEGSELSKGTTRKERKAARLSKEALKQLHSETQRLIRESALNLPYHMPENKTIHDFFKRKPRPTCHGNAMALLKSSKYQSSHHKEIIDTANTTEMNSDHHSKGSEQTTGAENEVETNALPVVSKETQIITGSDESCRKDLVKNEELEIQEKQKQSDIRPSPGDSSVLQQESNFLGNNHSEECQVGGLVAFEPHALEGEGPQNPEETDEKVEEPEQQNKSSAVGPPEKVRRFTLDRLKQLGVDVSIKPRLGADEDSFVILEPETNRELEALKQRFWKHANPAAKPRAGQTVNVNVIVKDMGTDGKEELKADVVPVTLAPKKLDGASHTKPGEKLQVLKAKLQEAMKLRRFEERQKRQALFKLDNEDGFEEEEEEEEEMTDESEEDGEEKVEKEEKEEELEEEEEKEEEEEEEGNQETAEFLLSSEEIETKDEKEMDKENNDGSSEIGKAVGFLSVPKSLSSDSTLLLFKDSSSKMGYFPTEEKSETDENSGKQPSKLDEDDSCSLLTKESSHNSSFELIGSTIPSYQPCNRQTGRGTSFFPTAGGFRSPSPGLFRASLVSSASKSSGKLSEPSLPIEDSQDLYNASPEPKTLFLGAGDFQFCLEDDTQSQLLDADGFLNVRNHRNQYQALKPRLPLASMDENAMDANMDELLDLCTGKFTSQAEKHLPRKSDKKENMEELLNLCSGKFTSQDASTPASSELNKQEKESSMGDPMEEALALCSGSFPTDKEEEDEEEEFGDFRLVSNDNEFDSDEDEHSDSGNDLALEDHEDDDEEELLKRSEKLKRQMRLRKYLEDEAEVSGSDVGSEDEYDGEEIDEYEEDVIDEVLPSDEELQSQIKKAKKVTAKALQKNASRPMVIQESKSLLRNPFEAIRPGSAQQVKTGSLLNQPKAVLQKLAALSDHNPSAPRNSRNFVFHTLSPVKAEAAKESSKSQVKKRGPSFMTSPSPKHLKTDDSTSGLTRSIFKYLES
Sequence of Claspin Cdel1 (Q9HAW4 other isoform, or with tags, fused parts or gaps): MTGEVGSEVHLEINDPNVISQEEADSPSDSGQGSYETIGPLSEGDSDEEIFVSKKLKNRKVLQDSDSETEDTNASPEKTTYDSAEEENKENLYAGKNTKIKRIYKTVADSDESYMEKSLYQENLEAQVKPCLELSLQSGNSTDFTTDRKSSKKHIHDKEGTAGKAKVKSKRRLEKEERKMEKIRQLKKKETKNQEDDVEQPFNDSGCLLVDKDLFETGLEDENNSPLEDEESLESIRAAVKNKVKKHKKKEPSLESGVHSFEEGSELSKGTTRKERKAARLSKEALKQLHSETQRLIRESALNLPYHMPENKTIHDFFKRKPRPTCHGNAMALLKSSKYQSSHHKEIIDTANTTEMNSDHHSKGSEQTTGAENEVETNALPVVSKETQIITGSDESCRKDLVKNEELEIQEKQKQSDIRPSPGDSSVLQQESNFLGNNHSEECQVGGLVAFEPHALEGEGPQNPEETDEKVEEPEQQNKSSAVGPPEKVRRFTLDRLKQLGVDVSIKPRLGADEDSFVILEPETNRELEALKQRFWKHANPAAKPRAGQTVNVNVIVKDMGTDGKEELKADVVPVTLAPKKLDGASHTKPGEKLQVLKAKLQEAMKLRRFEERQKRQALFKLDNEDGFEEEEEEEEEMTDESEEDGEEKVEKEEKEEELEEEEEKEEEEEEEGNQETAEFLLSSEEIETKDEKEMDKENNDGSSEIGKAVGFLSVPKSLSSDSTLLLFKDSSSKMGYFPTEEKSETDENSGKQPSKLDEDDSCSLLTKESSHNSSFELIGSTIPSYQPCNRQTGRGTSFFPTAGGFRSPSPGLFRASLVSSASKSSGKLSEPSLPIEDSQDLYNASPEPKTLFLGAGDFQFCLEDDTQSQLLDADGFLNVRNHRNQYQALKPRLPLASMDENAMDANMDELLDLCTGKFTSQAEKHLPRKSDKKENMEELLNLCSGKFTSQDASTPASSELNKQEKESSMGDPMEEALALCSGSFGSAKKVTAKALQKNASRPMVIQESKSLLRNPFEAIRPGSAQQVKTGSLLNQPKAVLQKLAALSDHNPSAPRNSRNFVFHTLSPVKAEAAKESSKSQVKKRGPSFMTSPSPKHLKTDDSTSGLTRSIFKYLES
Sequence of Claspin wild-type full-length (Q9HAW4 whole entry): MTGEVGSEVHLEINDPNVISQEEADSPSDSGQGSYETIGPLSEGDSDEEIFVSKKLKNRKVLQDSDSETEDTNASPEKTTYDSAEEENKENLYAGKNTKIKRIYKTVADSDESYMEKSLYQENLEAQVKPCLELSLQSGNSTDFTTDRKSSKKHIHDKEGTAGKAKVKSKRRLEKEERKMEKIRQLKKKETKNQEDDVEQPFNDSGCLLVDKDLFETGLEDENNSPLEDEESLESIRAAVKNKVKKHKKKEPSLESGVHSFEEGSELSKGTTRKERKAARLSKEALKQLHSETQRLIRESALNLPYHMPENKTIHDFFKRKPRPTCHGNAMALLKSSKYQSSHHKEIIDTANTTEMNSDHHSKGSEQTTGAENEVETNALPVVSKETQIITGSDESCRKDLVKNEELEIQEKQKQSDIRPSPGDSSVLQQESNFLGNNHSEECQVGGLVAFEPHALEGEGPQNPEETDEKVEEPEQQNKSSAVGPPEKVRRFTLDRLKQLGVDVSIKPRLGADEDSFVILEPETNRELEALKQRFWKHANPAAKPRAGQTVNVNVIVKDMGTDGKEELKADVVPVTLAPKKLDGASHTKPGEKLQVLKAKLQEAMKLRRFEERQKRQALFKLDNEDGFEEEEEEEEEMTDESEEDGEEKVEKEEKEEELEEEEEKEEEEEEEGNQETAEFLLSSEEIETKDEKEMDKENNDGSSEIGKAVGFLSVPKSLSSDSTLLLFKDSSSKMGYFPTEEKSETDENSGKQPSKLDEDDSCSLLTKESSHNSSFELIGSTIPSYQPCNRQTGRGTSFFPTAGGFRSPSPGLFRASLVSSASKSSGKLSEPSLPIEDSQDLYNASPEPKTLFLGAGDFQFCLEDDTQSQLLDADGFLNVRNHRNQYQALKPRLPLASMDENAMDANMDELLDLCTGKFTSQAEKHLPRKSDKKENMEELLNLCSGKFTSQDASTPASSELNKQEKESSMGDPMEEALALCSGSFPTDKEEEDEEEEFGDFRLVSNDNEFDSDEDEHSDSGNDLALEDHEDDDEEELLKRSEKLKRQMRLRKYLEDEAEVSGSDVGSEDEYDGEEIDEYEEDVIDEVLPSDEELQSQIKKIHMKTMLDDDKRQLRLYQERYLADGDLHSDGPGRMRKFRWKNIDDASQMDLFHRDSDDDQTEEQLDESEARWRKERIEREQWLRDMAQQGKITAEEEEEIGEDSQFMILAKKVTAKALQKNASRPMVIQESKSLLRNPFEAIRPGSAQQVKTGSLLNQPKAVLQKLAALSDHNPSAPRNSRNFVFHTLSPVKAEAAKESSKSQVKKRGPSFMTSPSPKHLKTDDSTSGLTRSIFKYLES

B1: Y-fork DNA (mixed)
DNA 1: AACGTCGTGACTGGGCACTTGATCGGCCAACCTTTTTTTTTTTTTTTTTTTTTTTTTTTTTTTT
DNA 2: TTTTTTTTTTTTTTTTTTTTTTTTTTTTTTTTGGTTGGCCGATCAAGTGCCCAGTCACGACGTT
binds: all assays above
